Read-outs that look alike come from different tables or passages of the source.
Legend:
Assay in all cases: cross-linking
cross-linking [1] = target: the molecule itself
cross-linking [2] = target: the molecule itself; remark: listed apart in the source
cross-linking [3] = target: the molecule itself; remark: listed apart in the source

B1: FLAG-tagged FlhA D170C/R185C (natural protein)
chain: MANLVAMLRLPSNLKSTQWQILAGPILILLILSMMVLPLPAFILDLLFTFNIALSIMVLLVAMFTQRTLDFAAFPTILLFTTLLRLALNVASTRIILMEGHTGAAAAGKVVEAFGHFLVGGNFAIGIVVFIILVIINFMVITKGAGRIAEVGARFVLDGMPGKQMAIDACLNAGLIGEDEAKKRCSEVTQEADFYGSMDGASKFVRGDAIAGILIMVINVVGGLLVGVLQHGMSIGSAAESYTLLTIGDGLVAQIPALVISTAAGVIVTRVSTDQDVGEQMVGQLFSNPRVMLLAAAVLGLLGMVPGMPNLVFLLFTAALLGLAWWLRGREEKAPEEPQPVKMPENNSVVEATWNDVQLEDSLGMEVGYRLIPMVDFQQDGELLGRIRSIRKKFAQDMGFLPPVVHIRDNMDLQPARYRILMKGVEIGSGDAYPGRWLAINPGTAAGTLPGEKTVDPAFGLDAIWIESALKEQAQIQGFTVVEASTVVATHLNHLIGQFSAELFGRQEAQQLLDRVSQEMPKLTEDLVPGVVTLTTLHKVLQNLLAEKVPIRDMRTILETLAEHAPLQSDPHELTAVVRVALGRAITQQWFPGNEEVQVIGLDTALERLLLQALQGGGGLEPGLADRLLAQTQEALSRQEMLGAPPVLLVNHALRPLLSRFLRRSLPQLVVLSNLELSDNRHIRMTATIGGK
cross-linking [1]
  stoichiometry N: 5
cross-linking [2]
  stoichiometry N: 7
cross-linking [3]
  stoichiometry N: 9

— paper PMC5380474 (Molecular microbiology, 2017)
